Consider two molecules from patent US20210230264A1 (JIANGSU QYUNS THERAPEUTICS, published 2021).

Test [1] addresses T1, human Interleukin-17A (hIL-17A) (human, UniProt Q16552 24-154).
T1 construct: also called hIL-17A standard
In words: SPR, Biacore T200, 25 C, antibody captured on Protein A CM5 chip, hIL-17A in flow, 1:1 model, mean of two runs. A general note: Surface plasmon resonance follows binding to a sensor surface in real time, without labels.
Description: The Protein A was chemically coupled to the CM5 chip, and an appropriate amount of antibody was immobilized by the capture method, so that the Rmax was less than 50 RU, and the capture flow rate was 10 μl/min. The antigen was gradually diluted, and the flow rate of the instrument was switched to 30 μl/min. The diluted antigen was flowed through the reference channel and the channel of immobilized antibody in sequence from low to high concentration, and the running buffer was flowed through as a negative control. After each binding and dissociation was completed, the chip was regenerated with glycine, pH1.5. Fitting was performed with the build-in software in the instrument according to a 1:1 binding model. The association rate constant kₐ, the dissociation rate constant kd, and the equilibrium dissociation constant KD values of the antibody were calculated.

Test [2] deals with T1, human Interleukin-17A (hIL-17A). As to the kind of experiment: cell-based or functional assay.

T1 sequence (Q16552 24-154): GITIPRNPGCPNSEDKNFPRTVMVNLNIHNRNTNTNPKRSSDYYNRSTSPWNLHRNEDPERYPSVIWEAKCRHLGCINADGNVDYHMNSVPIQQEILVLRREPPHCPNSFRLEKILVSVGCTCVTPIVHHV

B1: anti-human interleukin 17A monoclonal antibody QX002N (antibody, human IgG1, kappa, V domains shown)
VH: EVQLQESGPGLVKPSETLSLTCTVSGIDLSLFYMSWIRQPPGKGLEWIGTIHEVASSYYASWAKGRVTISKDTSKNQFSLKLSSVTAADTAVYYCARETYSSRYPYPNIWGQGTLVTVSS
VL: DIQMTQSPSSVSASVGDRVTITCQASQNIGGSLAWYQQKPGKAPKLLIYGASSLASGVPSRFSGSGSGTDFTLTISSLQPEDFATYYCQSYNTISTYGLAFGGGTKVEIKR
notes: Claim 27 joins 7/8 with 10/11; Expressed in ExpiCHO-S cells and purified on Protein A; also called 37-5; humanized clone 37 #
The Kd is the constant that tells how readily two partners part at equilibrium. Take B1: in test [1], the Kd came to 0.00707 nM. Further, the “IC50 (read off the curve)” value in test [2] was around 0.02 µg/mL.

B2: Ixekizumab (IXE) (antibody, V domains shown)
VH: QVQLVQSGAEVKKPGSSVKVSCKASGYSFTDYHIHWVRQAPGQGLEWMGVINPMYGTTDYNQRFKGRVTITADESTSTAYMELSSLRSEDTAVYYCARYDYFTGTGVYWGQGTLVTVSS
VL: DIVMTQTPLSLSVTPGQPASISCRSSRSLVHSRGNTYLHWYLQKPGQSPQLLIYKVSNRFIGVPDRFSGSGSGTDFTLKISRVEAEDVGVYYCSQSTHLPFTFGQGTKLEIKR
As usually defined, the koff is the first-order rate constant of dissociation. A low value points to a long-lived complex. Broadly, the kon is the rate constant with which the complex forms. High values mean faster complex formation, low ones slower complex formation. As for B2, in test [1], the Kd was 0.0154 nM, the koff stood at 2.58e-05 s⁻¹ and the kon is 1.7e+06 M⁻¹ s⁻¹.
